Ends that are not written are not given here.
Key:
[1] = system: MDA-MB-231 cells; assay: Colocalization of internalized β1-integrin with endogenous p120RasGAP; assay type: cell-based, human; details: integrin trafficking 45 min in the presence of primaquine; Pearson's correlation coefficient, n = 27 cells
[2] = target: T1, GST-p120RasGAP GAP domain (p120 GAP WT, residues 714–1047) (human, UniProt P20936 714-1047); assay: pull-down
T1 sequence (looked up): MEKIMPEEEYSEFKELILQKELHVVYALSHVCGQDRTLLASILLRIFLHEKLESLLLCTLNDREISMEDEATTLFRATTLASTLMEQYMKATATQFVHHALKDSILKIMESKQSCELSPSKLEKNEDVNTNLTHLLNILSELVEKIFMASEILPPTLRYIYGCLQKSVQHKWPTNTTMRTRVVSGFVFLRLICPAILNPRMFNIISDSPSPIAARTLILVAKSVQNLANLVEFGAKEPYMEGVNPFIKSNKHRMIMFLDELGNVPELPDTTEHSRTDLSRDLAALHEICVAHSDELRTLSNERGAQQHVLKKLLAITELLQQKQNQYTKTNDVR

[3] = target: T2, p120RasGAP GAP domain R789A, recombinant, as used in fluorescence polarisation (human, UniProt P20936 714-1047, R789A); assay: fluorescence polarisation
T2 sequence (looked up): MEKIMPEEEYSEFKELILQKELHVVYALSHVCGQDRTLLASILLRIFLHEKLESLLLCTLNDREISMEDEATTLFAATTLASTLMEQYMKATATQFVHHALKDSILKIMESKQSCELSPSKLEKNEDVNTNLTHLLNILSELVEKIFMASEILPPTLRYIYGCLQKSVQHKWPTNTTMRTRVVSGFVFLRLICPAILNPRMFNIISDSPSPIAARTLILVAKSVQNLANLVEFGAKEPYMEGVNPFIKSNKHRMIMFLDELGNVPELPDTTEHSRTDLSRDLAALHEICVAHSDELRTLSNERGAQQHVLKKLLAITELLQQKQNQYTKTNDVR

[4] = target: T3, Rab21 (residues 15–225), recombinant, as used in the affinity and competition measurements (human, UniProt Q9UL25 15-225); assay: fluorescence polarisation
T3 sequence (looked up): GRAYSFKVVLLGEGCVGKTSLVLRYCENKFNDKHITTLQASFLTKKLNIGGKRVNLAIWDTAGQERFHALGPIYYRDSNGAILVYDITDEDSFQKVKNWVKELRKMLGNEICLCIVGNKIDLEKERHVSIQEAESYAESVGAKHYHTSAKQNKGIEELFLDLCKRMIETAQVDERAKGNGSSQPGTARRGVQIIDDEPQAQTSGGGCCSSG

COc1cc(NC(C)CCCN)c2ncccc2c1 (stereo not shown) [primaquine]
overlap (colocalization) of internalized β1-integrins with p120RasGAP [1]: significantly increased the overlap of integrins with p120RasGAP

WKIGFFKRPLKKKMEKRPLKKKMEK (also: biotinylated, end not given here) [biotinylated α1-integrin cytoplasmic domain peptide]
binding result [2]: binds

WKLGFFKRKYEKM (also: EDANS fluorophore coupled, end not given here) [EDANS-conjugated α2-integrin cytoplasmic domain peptide (α2-cons, wild type)]
binding result [3]: binds | Kd [4]: 28 µM

Source: paper PMC3144408 (The Journal of Cell Biology, 2011)
